Source: publication PMC2817712, “Using Structural Information to Change the Phosphotransfer Specificity of a Two-Component Chemotaxis Signalling Complex” (PLoS Biology, 2010)
Positions count from the first letter of the chain named. Numbers in names are those of the source. Blank lines part the entries; values can stand above or below the binder they belong to.

Biological target: T1, CheA3P1, the isolated P1 (Hpt, histidine-containing phosphotransfer) domain of CheA3 (residues 1-135), … (R. sphaeroides)
T1 construct: Analyte in SPR and partner in the unphosphorylated crystal structure; also called Hpt domain of CheA3
Test: SPR; Biacore T100, 25°C; response regulator biotinylated in a C-terminal tag and held on streptavidin (200-1,500 RU); CheA3P1 injected at 120 nM to 2 mM; standard buffer (30 mM Hepes pH 7.5, 150 mM NaCl, 5 mM sodium acetate, 2 mM manganese chloride, 2 mM TCEP) with 0.05% Tween 20; equilibrium binding, 1:1 Langmuir model
Details: both partners purified

Kd: > 1000 µM
B1: CheY6(M13S) with an engineered C-terminal biotinylation tag, for SPR surfaces (natural protein)
chain: PYNVMIVDDAASMRLYIASFIKTLPDFKVVAQAANGQEALDKLAAQPNVDLILLDIEMPVMDGMEFLRHAKLKTRAKICMLSSVAVSGSPHAARARELGADGVVAKPSGTVSHDLEEKTGGELARTMRTLMAA
modifications: biotin within the engineered C-terminal tag (enzymatic)

Kd: > 1000 µM
B2: CheY6(M13S,L16S,Y17M) with an engineered C-terminal biotinylation tag, for SPR surfaces (natural protein)
chain: B1 chain with L15S, Y16M
modifications: biotin within the engineered C-terminal tag (enzymatic)
